Results taken from patent US20250382376A1 (FUDAN UNIVERSITY, published 2025).

T1: CD73 on the surface of human cells (human, UniProt P21589 27-549)
T1 construct: whole, on cells; The cell line of each value is named under assay or readout; also called CD73 on the surface of tumor cells; CD73 enzyme on the surface of MDA-MB-231 cells
T1 sequence (looked up): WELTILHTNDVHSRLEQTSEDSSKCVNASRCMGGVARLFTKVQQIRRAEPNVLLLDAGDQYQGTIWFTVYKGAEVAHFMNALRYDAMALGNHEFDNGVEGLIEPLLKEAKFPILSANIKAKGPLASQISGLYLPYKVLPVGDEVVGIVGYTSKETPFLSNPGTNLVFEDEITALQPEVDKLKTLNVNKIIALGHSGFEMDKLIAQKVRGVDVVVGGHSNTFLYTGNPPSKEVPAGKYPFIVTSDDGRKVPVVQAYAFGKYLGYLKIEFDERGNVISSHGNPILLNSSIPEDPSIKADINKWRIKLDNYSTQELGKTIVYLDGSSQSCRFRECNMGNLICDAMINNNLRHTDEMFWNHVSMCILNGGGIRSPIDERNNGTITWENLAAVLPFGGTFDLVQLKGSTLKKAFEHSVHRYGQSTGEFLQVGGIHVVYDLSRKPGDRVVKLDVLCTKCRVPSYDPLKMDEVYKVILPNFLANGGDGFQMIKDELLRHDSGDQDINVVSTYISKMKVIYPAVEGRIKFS

T2: extracellular domain of human CD73 protein, C-terminus polyhistidine-tagged (human, UniProt P21589 27-547)
T2 construct: also the immunogen; also called CD73-ECD; human CD73-ECD
T2 sequence: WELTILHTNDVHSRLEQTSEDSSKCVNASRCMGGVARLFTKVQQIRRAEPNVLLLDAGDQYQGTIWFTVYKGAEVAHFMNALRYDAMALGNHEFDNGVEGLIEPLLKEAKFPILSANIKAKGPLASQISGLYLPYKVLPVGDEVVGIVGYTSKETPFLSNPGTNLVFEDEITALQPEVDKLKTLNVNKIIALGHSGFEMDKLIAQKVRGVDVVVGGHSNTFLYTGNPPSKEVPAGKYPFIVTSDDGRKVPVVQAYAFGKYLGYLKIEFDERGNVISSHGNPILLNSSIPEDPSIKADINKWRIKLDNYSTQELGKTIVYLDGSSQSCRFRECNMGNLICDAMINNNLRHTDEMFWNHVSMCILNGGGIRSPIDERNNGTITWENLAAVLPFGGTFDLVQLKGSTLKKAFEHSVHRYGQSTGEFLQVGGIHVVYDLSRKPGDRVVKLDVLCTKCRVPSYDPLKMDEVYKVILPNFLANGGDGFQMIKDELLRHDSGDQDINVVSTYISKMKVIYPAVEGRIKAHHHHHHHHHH

B1: chimeric nanobody 3-D7 (Fc fusion)
VHH: QRQLVESGGGLVQPGGSLRLSCAASGFLLDYYVIGWFRQAPGKEREGVSCISGSDRSTYYADSVKGRFTISRDNAKNTVYLQMNSLKPEDTAVYFCAADPSPVTVQAMCLPRFPVPYWGQGTQVTVST
notes: Human-alpaca chimeric antibody (VHH on hIgG1 Fc); Only the VHH is tied to the tested molecule; 37-39 exist for 3-D7-FC1/FC2/FC3; also called original antibody 3-D7
B2: chimeric nanobody 4-D04 (Fc fusion)
VHH: QLQLVESGGGLVQPGGSLRLSCAASGFTLDYYNIGWFRQAPGKEREGVSCISSSEGSTYYADSVKGRFTISRDNAKNTVYLQMNSLKPEDTAVYYCAADRYYYCSLHVSQYDYWGQGTLVTVSS
notes: Human-alpaca chimeric antibody
B3: chimeric nanobody 5-E11 (Fc fusion)
VHH: ALQLVESGGGLVQPGGSLRLSCEVSGFTLDYYNIGWFRQAPGKEREGVSCSSNSGGSTYYADSVKGRFTISRDNAKNTVYLQMNSLKPEDTGVYYCAAYRGWHPSLDARVYDYWGQGTEVTVSS
notes: Human-alpaca chimeric antibody (VHH on hIgG1 Fc); Only the VHH is tied to the tested molecule; also called original antibody 5-E11
B4: chimeric nanobody 4-B02 (Fc fusion)
VHH: EVQLVESGGGLVQPGGSLRLSCAASGFPLDYYSIGWFRQAPGKEREGVSCIGSSDGSTYYADSVKGRFTISRDNAENTVWLQMNSLKPEDTAVYYCAALKYYYCSGHEAIYDYWGQGTQVTVSG
notes: as for B2

biological target: T1, CD73 on the surface of human cells; experiment: flow cytometry on HCC44 cells
Experimental: (§1) 100 μL of the test antibodies diluted from 10 μg/mL to 0.016 μg/mL in a 5-fold gradient were used as the primary antibodies, and were mixed with 1×10⁵ tumor cells suspended in 100 μL RPMI-1640 serum-free medium to make a final concentration of 5 μg/mL diluted to 0.008 μg/mL, and then incubated at 4° C. for 1 h. The cells were washed twice with PBS to remove unbound primary antibodies, and then the target cells were incubated with 200 μLPE-labeled secondary antibody at 2 μg/mL at 4° C. for 30 min. The cells were washed twice with PBS to remove unbound secondary antibodies, and finally the cells were resuspended in 200 μL PBS. The binding affinity of the test antibodies to CD73 on the surface of the corresponding cells was measured by flow cytometry.

EC50	Binder
0.234 µg/mL	B1
0.114 µg/mL	B2
0.096 µg/mL	B3
0.105 µg/mL	B4

biological target: T2, extracellular domain of human CD73 …; experiment: ELISA on CD73-ECD, 100 µL supernatant of antibody expression, first of two readings; PBS 0.19, 0.18
Experimental: (§2) The CD73 protein extracellular region (CD73-ECD) was diluted to 1 μg/mL using the coating solution, and an ELISA plate was coated at 100 μL/well at 4° C. overnight. Excess antigens were washed away, and the plate was blocked with 1% BSA at room temperature for 2 hours. Then, 5-fold gradient dilutions of each monoclonal antibody were added at 100 μL/well and incubated at room temperature for 1 hour. Unbound antibodies were washed away, and an appropriate concentration of Staphylococcal protein A labeled with horseradish peroxidase was added at 100 μL/well and incubated at room temperature for 0.5 hours. Unbound secondary antibodies were washed away, and TMB color development solution was added to react for about 15 minutes. 1M HCL was added at 50 µL/well to terminate the color development reaction, and then the absorbance was measured at 450 nm and the data was analyzed.
CD73 antigen ELISA binding affinity test was performed according to the method of Example 3.

ELISA reading (not named on the sheet)	Binder
4.33	B3

biological target: T1, CD73 on the surface of human cells; experiment: Flow cytometry on HCC44 cells, PE-labelled secondary antibody
Experimental: as §1

Max MFI	Binder
135000 MFI	B1
145000 MFI	B2
130000 MFI	B3
136000 MFI	B4

biological target: T1, CD73 on the surface of human cells; experiment: flow cytometry on NCI-H1373 cells
Experimental: as §1

EC50	Binder
0.227 µg/mL	B1
0.163 µg/mL	B2
0.135 µg/mL	B3
0.112 µg/mL	B4

biological target: T2, extracellular domain of human CD73 …; experiment: ELISA, coated CD73-ECD, protein A-HRP
Experimental: as §2

EC50	Binder
0.0135 µg/mL	B1
0.00267 µg/mL	B2
0.00872 µg/mL	B3
0.00303 µg/mL	B4

biological target: T1, CD73 on the surface of human cells; experiment: Flow cytometry on NCI-H1975 cells, PE-labelled secondary antibody [panel B]
Experimental: as §1

Max MFI	Binder
80900 MFI	B1
86100 MFI	B2
79700 MFI	B3
82700 MFI	B4

biological target: T1, CD73 on the surface of human cells; experiment: Flow cytometry on NCI-H1299 cells, PE-labelled secondary antibody [panel B]
Experimental: as §1

Max MFI	Binder
155000 MFI	B1
168000 MFI	B2
157000 MFI	B3
170000 MFI	B4

biological target: T1, CD73 on the surface of human cells; experiment: flow cytometry on SW1573 cells
Experimental: as §1

EC50	Binder
0.116 µg/mL	B1
0.067 µg/mL	B2
0.061 µg/mL	B4

biological target: T1, CD73 on the surface of human cells; experiment: flow cytometry on PC9 cells
Experimental: as §1

EC50	Binder
0.133 µg/mL	B1
0.057 µg/mL	B2
0.041 µg/mL	B3
0.044 µg/mL	B4

biological target: T1, CD73 on the surface of human cells; experiment: flow cytometry on MDA-MB-231 cells
Experimental: as §1

EC50	Binder
0.12 µg/mL	B1
0.059 µg/mL	B2
0.037 µg/mL	B3
0.037 µg/mL	B4

biological target: T2, extracellular domain of human CD73 …; experiment: ELISA, coated CD73-ECD, method of Example 3
Experimental: as §2
Based on the above mutants, 5-E11ASCS was designed and prepared, and the CD73 antigen ELISA binding affinity test was performed according to the method of Example 3.

EC50	Binder
0.05 µg/mL	B3

biological target: T1, CD73 on the surface of human cells; experiment: flow cytometry on NCI-H1299 cells

EC50	Binder
0.08 µg/mL	B2
0.068 µg/mL	B3
0.078 µg/mL	B4
